From patent US20240262904A1 (SHANGHAI MABGEEK BIOTECH, published 2024)

What was measured:
TSLP-flag-Biotin = target: T1, TSLP-flag-Biotin (human, UniProt Q969D9 29-159, limits assumed, biotin label, site not stated); assay: competition ELISA by the method of Example 5: blocks TSLP-flag-Biotin binding to coated TSLPR-ECD-hFc
T1 construct: the labelling is not described; also called biotinylated TSLP-flag

[1] = target: T2, human TSLP antigen tagged with Flag (hTSLP-Flag) (human, UniProt Q969D9 29-159, limits assumed); assay: SPR, Biacore T200, antibody captured on Protein A chip, hTSLP-Flag as analyte
T2 construct: also called recombinant human TSLP flag

[2] = target: T2, human TSLP antigen tagged with Flag …; assay: cell-based or functional assay

Row | IC50 (TSLP-flag-Biotin) [µg/mL] | Kd [1] [nM] | koff [1] [s⁻¹] | kon [1] [M⁻¹ s⁻¹] | IC50 of inhibition of TSLP-dependent STAT5 activation (luciferase, IL-7R/TSLPR-BaF3-Luc (STAT5) cells, TSLP-flag stimulus) [2] [µg/mL] | Binder
1 | 0.185 |  |  |  |  | humanized anti-human TSLP antibody 101H (antibody, human IgG1, kappa, V domains shown, Humanized, human IgG1 constant region; also called humanized antibody No. 101) VH: QVQLVQSGAEVKKPGASVKVSCKTSGYTFTKYWIQWVRQAPGQGLEWIGEIFPGTGTTYYNEIFKARVTLTVDTSTSTAYMELSSLRSEDTAVYYCARRGDYDVYYALDYWGQGTLVTVSS VL: EIVLTQSPATLSLSPGERATLSCSANSGVNYIHWYQQKPGQAPRFWIWTTSNLASGVPARFSGSGSGTDFTLTISSLEPEDFAVYYCQQRSSYPFTFGQGTKLEIKR
2 | 0.159 | 0.0513 | 0.000302 | 5.89e+06 | 0.378 | humanized anti-human TSLP antibody 163H (antibody, human IgG1, kappa, V domains shown, Humanized, human IgG1 constant region) VH: EVQLVESGGGLVQPGGSLRLSCAASGFTFSSFGMHWVRQAPGKGLEWVSYISSGSSNIYYADTVKGRFTISRDNAKNSLYLQMNSLRAEDTAVYYCARDGGSRRHYYVMDYWGQGTLVTVSS VL: EIVLTQSPATLSLSPGERATLSCKASQDVSPAVAWYQQKPGQSPRLLIYSASYRYTGVPARFSGSGSGTDFTLTISSLEPEDFAVYYCQQHYSSPFTFGQGTKLEIKR
3 | 0.167 |  |  |  | 0.184 | humanized anti-human TSLP antibody 111H (antibody, human IgG1, kappa, V domains shown, Humanized, human IgG1 constant region; also called humanized antibody No. 111) VH: EVQLVESGGGLVQPGGSLRLSCSVSGFSLTYSGVNWVRQAPGKGLEWLGAIWGDGSTNYHSALISRLTISKDNSKSTVYLQMNSLRAEDTAVYYCAKPDGYSGIFAYWGQGTLVTVSS VL: EIVLTQSPGTLSLSPGERATLSCSASSSLSSNYLHWYQQKPGQAPRLLIYRTSNLASGVPDRFSGSGSGTDFTLTISRLEPEDFAVYYCQQGSGILVTFGQGTKLEIKR
